Results on 1 protein are retold here after paper PMC4682053, “Mechanisms of assembly and genome packaging in an RNA virus revealed by high-resolution cryo-EM” (Nature Communications, 2015).

This series deals with the molecule itself. The series is described as follows: cryo-EM structure; CPMV eVLP purified from N. benthamiana leaves, ~4.2 mg/ml on the grid; single particles, icosahedral symmetry imposed; 3.04 Å; atomic model built de novo.

As usually defined, the stoichiometry N is the number of molecules, sites or subunits per partner or assembly.

B1: Cowpea mosaic virus Small (S) coat protein with its C-terminal extension, in the empty virus-like particle (eVLP) (natural protein)
chain: GPVCAEASDVYSPCMIASTPPAPFSDVTAVTFDLINGKITPVGDDNWNTHIYNPPIMNVLRTAAWKSGTIHVQLNVRGAGVKRADWDGQVFVYLRQSMNPESYDARTFVISQPGSAMLNFSFDIIGPNSGFEFAESPWANQTTWYLECVATNPRQIQQFEVNMRFDPNFRVAGNILMPPFPLSTETPPLLKFRFRDIERSKRSVMVGHTATAA
notes: Small (S) coat protein of cowpea mosaic virus, cut from the RNA-2-encoded precursor VP60 by the 24K proteinase; C-terminal 24 amino acids (190-213) kept; modelled up to Arg202, without 184-189; numbers count on: the S subunit; the particles imaged kept it; also called S subunit; small coat protein; source: N. benthamiana, agroinfiltrated with pEAQ-HT-VP60 and pEAQ-HT-24K or pEAQexpress-VP60-24K; …
Consider B1, for which the “stoichiometry N” value came out at 5.
